Reference: publication PMC3616908

Target: Chk1 (UniProt P38147)
Assay: biotinylated 35-mer peptide pull-down, anti-FLAG blot

Rad9 (from UniProt P14737) T143p peptide, λ phosphatase treated
binding against the reference (reference: T143p peptide, untreated or λ phosphatase plus inhibitors, sites T143): weaker

Rad9 (from UniProt P14737) T143p peptide
binding against the reference (reference: unphosphorylated peptide, sites T143): stronger

Rad9 (from UniProt P14737) T125pT143p peptide
binding against the reference (reference: T125p peptide, sites T143): stronger
binding against the reference (reference: T143p peptide, sites T125): weaker
binding against the reference (reference: unphosphorylated peptide, sites T125,T143): stronger

Rad9 (from UniProt P14737) T125p peptide
binding against the reference (reference: unphosphorylated peptide, sites T125): weaker
